Earlier results as cited in paper PMC7990104.
Like-named read-outs stand apart in the source and are kept apart here.

Columns and labels:
[1] = biological target: PYL3 (Arabidopsis thaliana) (UniProt Q9SSM7)
[2] = biological target: PYL3 (Arabidopsis thaliana) (UniProt Q9SSM7); remark: listed apart in the source

Kd [1]: 7.76 µM | Kd [2]: 52 µM
Substance: PYL3 (from UniProt Q9SSM7)
